Results: article PMC3124622

Substrate: Nc1nc2nc[nH]c2c(=O)[nH]1
Test: purified protein, by the assay type
Type: biochemical, E. coli
Conditions: other: wild-type, guanine as substrate, 20 μM tRNA, 37 °C, pH 7.3

B1: E. coli TGT Wild-Type (Escherichia coli K-12) (protein)
chain: MKFELDTTDGRARRGRLVFDRGVVETPCFMPVGTYGTVKGMTPEEVEATGAQIILGNTFHLWLRPGQEIMKLHGDLHDFMQWKGPILTDSGGFQVFSLGDIRKITEQGVHFRNPINGDPIFLDPEKSMEIQYDLGSDIVMIFDECTPYPADWDYAKRSMEMSLRWAKRSRERFDSLGNKNALFGIIQGSVYEDLRDISVKGLVDIGFDGYAVGGLAVGEPKADMHRILEHVCPQIPADKPRYLMGVGKPEDLVEGVRRGIDMFDCVMPTRNARNGHLFVTDGVVKIRNAKYKSDTGPLDPECDCYTCRNYSRAYLHHLDRCNEILGARLNTIHNLRYYQRLMAGLRKAIEEGKLESFVTDFYQRQGREVPPLNVD
  Km: 0.35 (0.03) μM
  kcat: 0.00629 s⁻¹
